Reference: patent US20180360946A1 (ALBERT EINSTEIN COLLEGE OF MEDICINE, published 2018)

Columns and labels:
mAb 2H12 [1] = target: T1, mAb 2H12; experiment: ELISA
T1 construct: also called prototypic AB-loop mAb 2H12

mAb 3H5-1 = target: T2, mAb 3H5-1; experiment: ELISA
T2 construct: also called prototypic FG-loop mAb 3H5-1

murine mAb 4E11 [2] = experiment: ELISA
mAb 2H12 [3] = target: T1, mAb 2H12; experiment: biolayer interferometry
murine mAb 4E11 [4] = experiment: biolayer interferometry
mAb 2H12 [5] = target: T1, mAb 2H12; experiment: ELISA, purified DIII
murine mAb 4E11 [6] = experiment: ELISA, purified DIII
murine mAb 4E11 [7] = experiment: phage ELISA, phage-displayed DIII titrated on immobilized 4E11; design: unit not given here

B1: WT DENV2 EDIII (other)
chain: GMSYSMCTGKFKIVKEIAETQHGTIVIRVQYEGDGSPCKIPFEIMDLEKRHVLGRLITVNPIVTEKDSPVNIEAEPPFGDSYIIIGVEPGQLKLNWFKKGSSIGQ
notes: also called WT DENV2 DIII; DENV2 EDIII WT
For B1, the EC50 (mAb 2H12 [1]) was 0.0003 µM, the EC50 (mAb 3H5-1) was about 2000 µM and the EC50 (murine mAb 4E11 [2]) was 0.002 µM. For the same binder, the Kd (mAb 2H12 [3]) was 0.03 nM, the Kd (murine mAb 4E11 [4]) was about 4 pM and the EC50 (mAb 2H12 [5]) was 0.00032 µM. The EC50 (murine mAb 4E11 [6]) was 0.0024 µM and the “EC50 (read off the curve)” value (murine mAb 4E11 [7]) was about 5e+08.
